Assay results taken from the DeepSol protein solubility set.

Assay: soluble on expression in E. coli; label from the status in PepcDB or PDB records

| Sequence | soluble on expression in E. coli |
| --- | --- |
| MSELSQLSPQPLWDIFAKICSIPHPSYHEEQLAEYIVGWAKEKGFHVERDQVGNILIRQPATAGMENRKPVVLQAHLDMVPQKNNDTVHDFTKDPIQPYIDGEWVKARGTTLGADNGIGMASALAVLADENVVHGPLEVLLTMTEEAGMDGAFGLQSNWLQADILINTDSEEEGEIYMGCAGGIDFTSNLHLDREAVPAGFETFKLTLKGLKGGHSGGEIHVGLGNANKLLVRFLAGHAEELDLRLIDFNGGTLRNAIPREAFATIAVAADKVDALKSLVNTYQEILKNELAEKEKNLALLLDSVANDKAALIAKSRDTFIRLLNATPNGVIRNSDVAKGVVETSLNVGVVTMTDNNVEIHCLIRSLIDSGKDYVVSMLDSLGKLAGAKTEAKGAYPGWQPDANSPVMHLVRETYQRLFNKTPNIQIIHAGLECGLFKKPYPEMDMVSIGPTITGPHSPDEQVHIESVGHYWTLLTELLKEIPAKLEHHHHHH | soluble |
| MPKSEPRYLTIYNQLKNQITSGTLTANEQLPTELQLAKAYNVSRITSKRALTELESQGLIYRKQGSGSFVQPTDQPKTNKQLLLVLPFPTDAGLGDYASGVSLAASAHHYQAVTMDSASFFNLSAKEIHENYAGVIYLPQDLYQEAERIYQLKLAQVPVVILDKTLPALELPVVTADNFSGGQIATDHLLQLGHQQILFYAQRNNTVLPSSVYERYFGYLTALNQQHVTPVTALADLPTLNQFSTNDWLTYLADHQITAIVVENDLTAIKLMNTLRKVDPKIWQRLSIVGFDNIQAASLTYPSLTTVAQDFKGMGTKAVSLLLKTPVQPTTVRLPVQLIQRDSTQPFQPISKEK | not soluble |
| VPGTVEVVFDKPEYRTGEEASALITFPEPVEDALLSLERDKVEATALLSKGADWLRLEKLNPTQYRVWIPVREEFSPNLTFSVLYTKGGDYSFQNAGIKVGMPQVEIDIATDKERYEPGETVTVTLATRFAGKPVSSHLTVSVVDEMVYALQAE | not soluble |
| MEKFVLSLDEGTTSARAIIFDRESNIHGIGQYEFPQHYPRPGWVEHNPEEIWDAQLRAIKDAIQSARIEPNQIAAIGVTNQRETTLVWDKDGKPLYNAIVWQCRRTAEMVEEIKREYGTMIKEKTGLVPDAYFSASKLKWLLDNVPGLREKAEKGEVMFGTVDTFLIYRLTGEHVTDYSNASRTMLFNIKKLDWDDELLELFDIPESVLPEVRESSEVYGYTKKELLGAEIPVSGDAGDQQAALFGQAAFEAGMVKATYGTGSFILVNTDKMVLYSDNLLTTIAWGLNGRVSYALEGSIFVTGAAVQWLRDGIKIIKHASETEELATKLESNEGVYFVPAFVGLGAPYWDQFARGIIIGITRGTGREHLARATLEAIAYLTRDVVDEMEKLVQIKELRVDGGATANDFLMQFQADILNRKVIRPVVKETTALGAAYLAGLAVDYWADTREIAELWKAERIFEPKMDEKTRERLYKGWKEAVKRAMGWAKVVDSAKSN | soluble |
| MSSSDHIHVPDGLAESYSRSGGEEGRAWIAGLPALVARCVDRWELKRDGGVRSGEASLVVPVLRADGTRAALKLQMPREETTAALIGLRAWGGDGMVRLLDHDEESSTMLLERLDGSRTLASVEDDDEAMGVLAGLLNRLHSVPAPPGLRGLGEIAGAMVEEVPSAVDSLADPEDRSRLRGWASAVAELVGEPGDRVLHWDLHYENVLAAEREPWLAIDPEPLVGDPGFDLWPALDTGWERIEATGDARRVVRRRFDLLTEALELDRGRAAGWTLARLLQNTLWDIEDGLTAIAPSQIAVAEALAKP | not soluble |
| SPNSMSALKAVFQYIDENQDRYVKKLAEWVAIQSVSAWPEKRGEIRRMMEVAAADVQRLGGSVELVDIGKQKLPDGSEIPLPPILLGKLGSDPQKKTVCIYGHLDVQPAALEDGWDSEPFTLVEREGKLYGRGSTDDKGPVAGWMNALEAYQKTGQEIPVNLRFCLEGMEESGSEGLDELIFAQKDKFFKDVDYVCISDNYWLGKNKPCITYGLRGICYFFIEVECSDKDLHSGVYGGSVHEAMTDLISLMGCLVDKKGKILIPGINDAVAPVTDEEHALYDHIDFDMEEFAKDVGAETLLHSCKKDILMHRWRYPSLSLHGIEGAFSGSGAKTVIPRKVVGKFSIRLVPDMIPEVVSEQVSSYLSKKFAELQSPNKFKVYMGHGGKPWVSDFNHPHYQAGRRALKTVFGVEPDLTREGGSIPVTLTFQEATGKNVMLLPVGSADDGAHSQNEKLNRLNYIEGTKMLAAYLYEVSQLKN | soluble |
| MTMHREPGGERYYYTWAWFEGPDDAAWRVTGHHTDSGEQYRLDWNLAERSLCVTDSLGRTRCHWWDAQGLVTAYRDEAGQMTTFRWSDEERLLLGMTDAQGGKWRYVYDRLGHLTETHDPLGRVEQTQWHPVWHQPETEVDAAGAAWRYEYDERGNLQAVSDPLHQRTVYGYDRHGQVVRITDARGGDKYLQWNEDGQLMRHTDCSGSQTAWFYDERTRLERVTDAESNSTRYSYDGNGHLTEVMFADGRTERYQPDAAGRLVKYTSPAGQITRWQRDGQGRVRRQTDATGRRTAYEYDAYGRLTTLTNENGESYRFRYDVLDRLTEQTDPGGSRRAYGYNALNAVTAVIYGGERGGEIRHGLERDAAGRLTAKTTPETRTEYRYDAADRLLEIRRRRHDAAEGGEPEVIRFSYDSAGNLLSEETAQGVLQHRYDVQGNRTETQMPDGRTLRYLYYGSGHLQQINLGRDVISEFTRDHLHREVQRSQGRLDTRRMYDRTGRLTRKPTCKGMRGVVPETFIDREYAYSGQDELLKKRHSRQGVTDYFYDTTGRITACRNEAYLDSWQYDAAANLLDRRQGETAQAGAGSVVPFNRITSYRGLHYRYDEYGRVVEKRGRNGTQHYRWDAEHRLTEVAVIRGSTVRRYGYVYDAPGRRVEKHELDAEGKPYNRTTFLWDGMRLAQECRLGRSSSLYIYSDQGSHEPLARVDRAAPGEADEVLYYHTDVNGAPEEMTDGRGNIVWEAGYQVWGNLTHEKETRPVQQNLRFQGQYLDRETGLHYNLYRFYDPDIGKFISGDPISIRGGINLYQYAPNPIKWIDPLGLYNGEGQRELGKYHVFHEHNLDITEYGLSDAEHFSRGNQAIYERMKNDPAFRREMQTKYPGVVEHVQPSSGGKFSTESPPGLTWHHENKPGVLSLVDRLDHKTYLEHHHHHH | not soluble |
| MARSITMQQRIEFGDCNPAGIVWYPNYHRWLDAASRNYFIKCGLPPWRQTVVERGIVGTPIVSCNASFVCTASYDDVLTIETCIKEWRRKSFVQRHSVSRTTPGGDVQLVMRADEIRVFAMNDGERLRAIEVPADYIELCS | soluble |
| MSGSDDDATQISREDEELAYEIYFWIVRCICEKGVVKISELRKIYQSTVVKDRSVQFRPLPGVLKAVNENLLHWQGWNAVIQDDRLTYVNVNGDAPNEVRASETERTLGLLKNVLMYVFVATKPQSKHPGVAQEDLMSYMEASMSTHSDRKLSLDHMEFLKKLIAPNARSEFIKKGYLAFTKSVNENDEEVFRYEWGPAARQTVDPLALVQTFQQLTGMKPEMLKEQTERANELKAEQVAAVTRGGVLRTRGQ | not soluble |
| AHHHHHHGSKVYYPGREWPEEYKRVLEKMKEIIDPVTGDNILDSGVVAGLEVKDRTLKVWLRFESQAEYNILGGAAMAYSKIVGDIMEKFALVMFDNVYVYDLRNNIVGVFEKKK | not soluble |
| MGSDKIHHHHHHMLKINMFSAADSVKGQGVGSAYNELMNLLKTHLNQEFDVSVNRYRRVDITHYHTINFSYYLSTFLPHRGRKIGYVHFLPETLEGSLKIPQPFRSIFYAYVLAFYRRMDHIVVVNPTFIPKLVAAGIPAERVTYIPNFVSRDEFYPVTVEQKQALRQQYGYATDRFTILGIGQIQERKGLFDFIKLARNNPSYQFIWAGGFSFGRMTDGYAELKKVVDNPPANLSFPGIVDRDKLVDYYNLADLFLLPSFNELFPMSVLEAFSTGTPVLLRDLDLYQAIIAGDYQPAKDYAEMDEQLHRLAADPQALAHWRQQSLAAADRYSEEHLTQIWREFYTQQAKER | not soluble |
| MTDILIDNTATETVRTLIRAFPLVPVSQPPEQGSYLLAEHDTVSLRLVGEKSSVIVDFASGAAQYRRTKGGGELIAKAVNHTAHPTVWDATAGLGRDSFVLASLGLAVTAFEQHPAVACLLSDGIRRALLNPETQNTAAHINLHFGNAAEQMPALVQTQGKPDIVYLDPMYPERRKSAAVKKEMTYFHRLVGEAQDEAALLHTARQTAKKRVVVKRPRLGEHLAGQDPAYQYTGKSTRFDVYLPYGTDKG | not soluble |
| MSKIVEVSKSPYAKLKTIPVGSVRVNGFMGKYFETLVNVTLPTQYDLLENTGRLDNFRIAAGKMEGSYKTLFPFDDTDVYKWAETVSFALANRKLPELEKILDSVIEEVKAAQDEDGYLGTYLSGDRKKERWTNLAWNHELYNAGHLIQAAVAHRRVTGKNTLFEVAKRFADHIYNTFGPEKKEGAPGHPEVEMALVELYRETGDRKYLDLARYFIYARGKGLASVPRNPGPEYFIDHKPFVELEEITGHAVRALYLCSGATDLYLETGDEKIWQALNRLWENFVTKKMYITGGAGSRHDWESFGEEYELPNRRSYAESCASIANFMWNFRMLLATGDGKFADVMEQVLYNGLLSGISLDGKHYFYFNPLEDYGRTRRQKWFDCACCPPNLARFIVSFPGYMYTTSDDGVQVHLYEKSTARLDFKGSVVEIEQETDYPWSGEVAFTIKTDIEEPFSIYLRLPSWADDFVLRVDGKAVIAKPQNGYVKLSQSWKGKHTVELSLPMKAVFIEAHPFVRDDLGKAAVKRGPVVYCIEQADNPDFHVWTLVLNSESLKEEKGKILDREAVFLKGTGRALDISEWEGKLYRKLSEVREKTVEFTLIPYHMWANREPGAMAVWLKR | soluble |
| MEHLRRFDRVAGAVTQAMREGRIGFSLQQVNAVDDTGEVLYSECLGRLVERDGAVRTSEEFTAFLEASGRVASFDRYMVGLAFEWLDCNPSGVLGCDISAGNIFDENTWSELYDLLSRNREMASRLVLEITECLPLATLPTAAEFIEGARALGYRIALDSFGTGHSTPESLLSVPVDIVKLDAFFIGRGQGVGKGKGFLHHLVGLASCVAPTVIIEGIETYGQLEAVKKAGATHVQGFLLSEPTLYPVYCGQPAPLPAAKPRSAGSRQLHS | not soluble |
| MSLFLSNVILHQLRKNDNDELVVNYRAESLRNDTSTENLVAELHRVFNAKAGKGFGCFKSDSEFQLWLQEMRRGTLPFYEFSQQSAQRLKNELAKYPFADEGILVMAEYQSLATDYLFIGLLPLNQSLKVTEGLDISATDYLDINKMDIVARIDLSSYETDKESKRYLSYIKGRVGRKVADFFLDFLQADIGLDTKQQNQVLMQAVEDFCADAKFEKEEVISYKKQVYEYCNDQIKAGDEVRVQELSGELPPSNEGVNFFDFTREQGYQLEESFPADRSTVRKLTKYVGAGGGLNLSFDSLLLGERVFYDPETDTLTIKGTPPNLRDQLTRLRLEHHHHHH | soluble |
| MGKSASKQFHNEVLKAHNEYRQKHGVPPLKLCKNLNREAQQYSEALASTRILKHSPESSRGQCGENLAWASYDQTGKEVADRWYSEIKNYNFQQPGFTSGTGHFTAMVWKNTKKMGVGKASASDGSSFVVARYFPAGNVVNEGFFEENVLPPKK | soluble |
| MSQPAKVLLLYAHPESQDSVANRVLLKPAIQHNNVTVHDLYARYPDFFIDTPYEQALLREHDVIVFQHPLYTYSCPALLKEWLDRVLSRGFASGPGGNQLVGKYWRSVITTGEPESAYRYDALNRYPMSDVLRPFELTAAMCRMHWMPPIIVYWARRQSPQTLASHAKAYGEWLANPVSAGGY | not soluble |
